Data from patent US20180185467A1 (Harvard, published 2018).

Biological target: T1, GST-NS3 of YFV (strain 17D) (Yellow Fever virus, strain 17D, UniProt P03314 1485-2107)
T1 construct: domain: NS3; also called YFV NS3; NS3 of Yellow Fever virus
T1 sequence: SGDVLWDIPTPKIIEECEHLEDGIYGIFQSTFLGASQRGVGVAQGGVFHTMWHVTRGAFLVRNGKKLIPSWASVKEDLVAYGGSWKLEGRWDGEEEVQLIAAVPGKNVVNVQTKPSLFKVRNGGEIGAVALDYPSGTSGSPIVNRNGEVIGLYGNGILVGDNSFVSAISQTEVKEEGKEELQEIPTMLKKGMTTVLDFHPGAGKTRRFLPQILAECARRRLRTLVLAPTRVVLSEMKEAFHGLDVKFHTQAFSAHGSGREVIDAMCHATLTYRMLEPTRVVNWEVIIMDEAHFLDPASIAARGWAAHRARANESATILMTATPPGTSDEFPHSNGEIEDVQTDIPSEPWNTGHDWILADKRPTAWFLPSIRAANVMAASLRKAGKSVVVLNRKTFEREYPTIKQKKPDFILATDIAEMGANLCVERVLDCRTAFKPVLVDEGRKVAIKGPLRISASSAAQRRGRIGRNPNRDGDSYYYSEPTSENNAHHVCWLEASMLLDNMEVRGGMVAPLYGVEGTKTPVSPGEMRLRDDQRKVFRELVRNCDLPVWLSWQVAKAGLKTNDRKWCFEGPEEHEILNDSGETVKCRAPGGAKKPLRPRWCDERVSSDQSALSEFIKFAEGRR
Assay: GST pull-down in 293T cells, immunoblot with anti-14-3-3ε

B1: endogenous 14-3-3ε (other)
chain: MDDREDLVYQAKLAEQAERYDEMVESMKKVAGMDVELTVEERNLLSVAYKNVIGARRASWRIISSIEQKEENKGGEDKLKMIREYRQMVETELKLICCDILDVLDKHLIPAANTGESKVFYYKMKGDYHRYLAEFATGNDRKEAAENSLVAYKAASDIAMTELPPTHPIRLGLALNFSVFYYEILNSPDRACRLAKAAFDDAIAELDTLSEESYKDSTLIMQLLRDNLTLWTSDMQGDGEEQNKEALQDVEDENQ
Question: Does B1 bind?
Answer: Result: no binding
